Experiments:
Assay in all cases: SPR
[1] = molecular target: N-terminal human PrP fragment (PrP23–145) (human) (UniProt P04156)
[2] = molecular target: N-terminally truncated PrP (PrP89–230) (mouse) (UniProt P04925)
[3] = molecular target: N-terminally truncated human PrP90–231 (human) (UniProt P04156)
[4] = molecular target: full-length PrP (PrP23–231) (mouse) (UniProt P04925)

For “Quiescin-sulfhydryl oxidase (from UniProt O00391 30-747) (enzyme)”, which Kd [1] is on record?
The Kd was 3.6 nM.

What about the Kd [2] of the same substance?
Its Kd is 312 nM.

What about the Kd [3] of the same substance?
Its Kd is 771 nM.

What about the Kd [4] of the same substance?
Its Kd is 2 nM.
